Measurements reported in patent publication US20250277199, “NOVEL CRISPR-CAS NUCLEASES FROM METAGENOMES” (Brain Biotech AG, published 2025).

Target: T1, BMC09 (uncultured bacterium (metagenome))
T1 chain: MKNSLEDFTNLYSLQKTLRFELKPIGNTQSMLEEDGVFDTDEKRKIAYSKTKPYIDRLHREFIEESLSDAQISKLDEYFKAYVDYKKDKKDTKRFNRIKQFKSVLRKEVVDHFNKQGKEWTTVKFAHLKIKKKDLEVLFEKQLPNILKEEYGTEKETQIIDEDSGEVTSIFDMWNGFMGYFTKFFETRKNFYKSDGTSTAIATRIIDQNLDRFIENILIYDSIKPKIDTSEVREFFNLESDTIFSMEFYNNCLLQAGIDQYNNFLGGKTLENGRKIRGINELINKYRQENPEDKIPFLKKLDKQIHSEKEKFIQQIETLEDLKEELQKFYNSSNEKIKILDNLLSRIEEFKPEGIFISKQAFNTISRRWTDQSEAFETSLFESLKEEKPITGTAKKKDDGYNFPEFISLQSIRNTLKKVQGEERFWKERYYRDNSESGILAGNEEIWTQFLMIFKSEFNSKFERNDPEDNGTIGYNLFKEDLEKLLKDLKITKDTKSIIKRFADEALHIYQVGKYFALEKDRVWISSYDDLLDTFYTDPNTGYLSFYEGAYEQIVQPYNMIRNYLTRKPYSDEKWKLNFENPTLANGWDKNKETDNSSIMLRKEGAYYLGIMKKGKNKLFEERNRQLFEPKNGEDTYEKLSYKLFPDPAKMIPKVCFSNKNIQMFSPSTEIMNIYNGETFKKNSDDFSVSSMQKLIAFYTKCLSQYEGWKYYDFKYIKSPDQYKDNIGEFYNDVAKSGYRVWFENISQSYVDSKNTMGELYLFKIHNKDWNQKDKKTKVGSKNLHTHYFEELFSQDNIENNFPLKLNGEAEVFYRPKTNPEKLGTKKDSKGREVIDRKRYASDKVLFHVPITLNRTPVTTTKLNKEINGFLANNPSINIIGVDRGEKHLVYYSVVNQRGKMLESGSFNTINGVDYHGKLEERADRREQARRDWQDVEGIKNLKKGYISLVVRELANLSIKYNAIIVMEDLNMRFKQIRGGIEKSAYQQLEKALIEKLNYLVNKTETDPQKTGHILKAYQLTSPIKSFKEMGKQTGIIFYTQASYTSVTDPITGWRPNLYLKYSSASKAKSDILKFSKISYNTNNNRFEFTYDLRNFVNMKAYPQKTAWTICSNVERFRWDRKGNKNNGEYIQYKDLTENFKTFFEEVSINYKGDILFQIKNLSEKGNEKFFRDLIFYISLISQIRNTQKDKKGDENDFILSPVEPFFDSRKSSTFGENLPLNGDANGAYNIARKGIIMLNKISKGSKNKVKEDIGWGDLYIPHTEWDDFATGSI
Test: cell_activity; PAM not stated; E. coli depletion, 30 C
How it was run: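 E. coli carrying arabinose-induced (0.2%) BMC nuclease, grown at 30° C., made electrocompetent and electroporated with 50-100 ng plasmid carrying gRNA against malQ. Transformants plated on selective M9-glucose agar with kanamycin/ampicillin (± nourseothricin), and growth scored after 48 h at 30° C.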

B1: malQ gRNA (BMC stem-loop + 24 nt spacer) ; malQ protospacer (ssRNA ; dsDNA)
RNA: GAUUUCUACUAUUGUAGAUGUGGCGGUACGUUGAUGCAUCGCG
DNA 1: GTGGCGGTACGTTGATGCATCGCG
DNA 2: CGCGATGCATCAACGTACCGCCAC
  activity: > 99.9 % colony reduction
